Patent US20150276760A1 (INSERM INSTITUT NATIONAL DE LA SANTE ET DE LA RECHERCHE …, published 2015)

How the values were obtained:
Assay in all cases: Flag/HA immunopurification of MAML1-F/H from SupT1 nuclear extracts, DMSO or GSI (500 nM, 8 hours), western blot (FIG. 2D)
BRG1 = target: T1, BRG1 (human, UniProt P51532 1-1647)
T1 construct: also called endogenous BRG1; PBAF subunit BRG1

PHF8 = target: T2, PHF8 (human, UniProt Q9UPP1 1-1060, limits assumed)
T2 construct: also called endogenous PHF8; histone demethylase PHF8

AF4p12 = target: T3, AF4p12 (human, UniProt O94915 2-3013)
T3 construct: also called FRYL

PB1 = target: T4, PB1 (human, UniProt Q86U86 1-1689, limits assumed)
T4 construct: also called PBAF subunit PB1

LSD1 = LSD1 (human, UniProt O60341 1-852)

Measured: binding result

T2 sequence (Q9UPP1 whole entry): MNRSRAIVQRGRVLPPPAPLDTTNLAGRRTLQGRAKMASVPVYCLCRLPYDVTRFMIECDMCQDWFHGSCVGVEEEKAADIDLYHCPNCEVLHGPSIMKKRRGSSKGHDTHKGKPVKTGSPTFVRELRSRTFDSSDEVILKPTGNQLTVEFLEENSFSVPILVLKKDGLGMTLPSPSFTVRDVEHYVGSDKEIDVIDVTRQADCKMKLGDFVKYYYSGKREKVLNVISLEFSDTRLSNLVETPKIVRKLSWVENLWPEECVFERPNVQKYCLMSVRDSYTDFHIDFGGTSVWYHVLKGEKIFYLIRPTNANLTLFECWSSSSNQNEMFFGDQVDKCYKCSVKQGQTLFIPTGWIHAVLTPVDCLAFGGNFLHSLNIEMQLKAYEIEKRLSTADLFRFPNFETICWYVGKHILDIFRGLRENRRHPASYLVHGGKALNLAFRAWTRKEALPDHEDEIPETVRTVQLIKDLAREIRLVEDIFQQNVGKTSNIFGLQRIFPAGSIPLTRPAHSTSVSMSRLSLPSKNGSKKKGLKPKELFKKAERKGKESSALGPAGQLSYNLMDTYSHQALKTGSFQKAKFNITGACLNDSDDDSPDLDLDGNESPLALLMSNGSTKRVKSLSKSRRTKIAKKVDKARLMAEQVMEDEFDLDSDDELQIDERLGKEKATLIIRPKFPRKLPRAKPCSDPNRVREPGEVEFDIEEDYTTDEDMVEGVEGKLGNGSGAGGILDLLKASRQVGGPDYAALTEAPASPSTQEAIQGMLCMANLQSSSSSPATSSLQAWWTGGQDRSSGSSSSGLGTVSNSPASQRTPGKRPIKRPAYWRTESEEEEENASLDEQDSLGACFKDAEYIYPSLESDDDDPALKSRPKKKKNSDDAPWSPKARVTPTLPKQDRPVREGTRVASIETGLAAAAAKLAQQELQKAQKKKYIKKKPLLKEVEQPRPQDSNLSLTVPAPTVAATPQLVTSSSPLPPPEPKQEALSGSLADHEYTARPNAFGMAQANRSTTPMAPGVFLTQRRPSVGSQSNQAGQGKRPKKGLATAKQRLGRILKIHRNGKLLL
T1 sequence (P51532 whole entry): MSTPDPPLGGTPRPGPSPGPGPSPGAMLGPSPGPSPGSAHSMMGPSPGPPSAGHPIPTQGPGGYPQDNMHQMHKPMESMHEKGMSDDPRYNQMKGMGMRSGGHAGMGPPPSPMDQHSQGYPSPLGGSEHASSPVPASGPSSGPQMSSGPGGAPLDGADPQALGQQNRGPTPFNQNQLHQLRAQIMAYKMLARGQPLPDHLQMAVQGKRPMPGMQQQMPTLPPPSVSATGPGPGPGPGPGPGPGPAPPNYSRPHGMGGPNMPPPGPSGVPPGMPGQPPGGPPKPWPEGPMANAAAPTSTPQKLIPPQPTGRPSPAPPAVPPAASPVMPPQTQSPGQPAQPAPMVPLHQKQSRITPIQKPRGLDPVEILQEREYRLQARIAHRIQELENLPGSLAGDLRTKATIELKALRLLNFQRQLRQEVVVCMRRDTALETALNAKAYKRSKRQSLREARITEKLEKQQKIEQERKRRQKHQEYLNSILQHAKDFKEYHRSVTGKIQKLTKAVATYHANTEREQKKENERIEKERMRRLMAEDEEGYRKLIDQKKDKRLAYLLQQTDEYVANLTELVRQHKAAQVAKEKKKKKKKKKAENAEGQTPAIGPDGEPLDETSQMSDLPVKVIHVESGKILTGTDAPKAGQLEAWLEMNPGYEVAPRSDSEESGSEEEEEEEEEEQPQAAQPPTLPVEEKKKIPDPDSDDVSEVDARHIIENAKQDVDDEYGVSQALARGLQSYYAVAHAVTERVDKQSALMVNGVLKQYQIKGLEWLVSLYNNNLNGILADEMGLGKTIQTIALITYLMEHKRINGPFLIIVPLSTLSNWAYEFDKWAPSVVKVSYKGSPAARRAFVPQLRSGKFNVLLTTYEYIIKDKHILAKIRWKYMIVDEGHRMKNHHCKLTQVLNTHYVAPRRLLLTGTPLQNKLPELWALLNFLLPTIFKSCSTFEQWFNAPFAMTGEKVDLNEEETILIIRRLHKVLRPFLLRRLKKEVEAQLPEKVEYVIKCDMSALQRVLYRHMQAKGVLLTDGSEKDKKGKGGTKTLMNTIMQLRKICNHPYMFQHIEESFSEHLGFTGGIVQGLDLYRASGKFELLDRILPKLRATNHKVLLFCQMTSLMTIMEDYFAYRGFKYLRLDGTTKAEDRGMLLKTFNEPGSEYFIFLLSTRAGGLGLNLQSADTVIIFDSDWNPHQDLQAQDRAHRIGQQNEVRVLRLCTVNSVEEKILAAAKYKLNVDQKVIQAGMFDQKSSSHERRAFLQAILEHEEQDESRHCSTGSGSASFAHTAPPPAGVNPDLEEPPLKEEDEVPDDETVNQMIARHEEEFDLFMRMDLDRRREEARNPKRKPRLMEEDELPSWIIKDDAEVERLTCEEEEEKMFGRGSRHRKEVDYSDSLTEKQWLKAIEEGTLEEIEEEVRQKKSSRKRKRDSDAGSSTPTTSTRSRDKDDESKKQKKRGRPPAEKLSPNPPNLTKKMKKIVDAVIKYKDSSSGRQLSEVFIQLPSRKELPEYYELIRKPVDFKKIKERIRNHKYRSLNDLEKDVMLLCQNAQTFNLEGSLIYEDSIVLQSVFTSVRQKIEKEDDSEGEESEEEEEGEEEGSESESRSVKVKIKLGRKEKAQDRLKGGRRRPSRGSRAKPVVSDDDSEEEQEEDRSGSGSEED
T4 sequence (Q86U86 whole entry): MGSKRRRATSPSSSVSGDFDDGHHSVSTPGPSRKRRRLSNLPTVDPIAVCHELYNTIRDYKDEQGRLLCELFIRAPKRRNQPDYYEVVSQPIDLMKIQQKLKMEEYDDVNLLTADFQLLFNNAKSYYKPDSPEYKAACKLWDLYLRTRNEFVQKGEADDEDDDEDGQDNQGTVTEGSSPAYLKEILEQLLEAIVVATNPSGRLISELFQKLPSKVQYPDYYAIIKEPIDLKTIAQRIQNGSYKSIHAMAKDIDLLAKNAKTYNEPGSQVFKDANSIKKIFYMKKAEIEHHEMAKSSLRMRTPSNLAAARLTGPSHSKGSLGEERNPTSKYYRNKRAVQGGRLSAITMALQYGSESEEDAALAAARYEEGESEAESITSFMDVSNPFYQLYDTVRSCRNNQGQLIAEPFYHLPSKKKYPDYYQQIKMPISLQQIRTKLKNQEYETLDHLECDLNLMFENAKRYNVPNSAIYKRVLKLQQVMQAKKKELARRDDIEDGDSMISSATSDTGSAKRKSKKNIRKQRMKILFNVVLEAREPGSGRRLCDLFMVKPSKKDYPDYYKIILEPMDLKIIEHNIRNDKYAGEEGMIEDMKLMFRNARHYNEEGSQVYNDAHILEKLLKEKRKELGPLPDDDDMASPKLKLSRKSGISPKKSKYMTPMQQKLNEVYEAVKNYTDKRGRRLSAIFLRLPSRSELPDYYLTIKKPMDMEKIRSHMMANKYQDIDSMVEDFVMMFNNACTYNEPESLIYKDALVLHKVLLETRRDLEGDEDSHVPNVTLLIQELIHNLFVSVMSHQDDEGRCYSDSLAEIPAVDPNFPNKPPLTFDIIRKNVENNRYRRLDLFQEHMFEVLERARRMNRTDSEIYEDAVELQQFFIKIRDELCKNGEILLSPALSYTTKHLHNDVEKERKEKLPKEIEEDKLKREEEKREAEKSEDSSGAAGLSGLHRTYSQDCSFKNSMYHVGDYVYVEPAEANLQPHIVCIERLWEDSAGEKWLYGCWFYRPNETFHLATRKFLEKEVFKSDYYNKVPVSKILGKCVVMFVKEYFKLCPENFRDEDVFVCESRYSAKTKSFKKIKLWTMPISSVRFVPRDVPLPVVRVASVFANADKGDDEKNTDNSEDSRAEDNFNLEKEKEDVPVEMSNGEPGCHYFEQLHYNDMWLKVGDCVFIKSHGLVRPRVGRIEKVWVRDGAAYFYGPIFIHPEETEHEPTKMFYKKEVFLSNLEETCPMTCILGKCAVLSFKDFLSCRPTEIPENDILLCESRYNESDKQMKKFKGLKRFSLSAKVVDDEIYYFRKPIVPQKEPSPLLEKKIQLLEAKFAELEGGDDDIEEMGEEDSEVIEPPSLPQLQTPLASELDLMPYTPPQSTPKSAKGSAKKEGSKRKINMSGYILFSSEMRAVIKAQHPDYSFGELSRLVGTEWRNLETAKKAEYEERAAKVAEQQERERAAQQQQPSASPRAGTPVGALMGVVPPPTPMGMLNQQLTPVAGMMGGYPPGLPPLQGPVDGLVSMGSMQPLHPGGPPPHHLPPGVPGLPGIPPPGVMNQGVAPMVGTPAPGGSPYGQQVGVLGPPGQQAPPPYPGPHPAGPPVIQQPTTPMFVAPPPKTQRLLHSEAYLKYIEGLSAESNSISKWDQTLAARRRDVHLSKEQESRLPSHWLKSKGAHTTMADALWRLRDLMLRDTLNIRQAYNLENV

B1: Flag and HA-tagged MAML1 (MAML1-F/H) (other, human, UniProt Q92585 1-1016, looked up)
chain: MVLPTCPMAEFALPRHSAVMERLRRRIELCRRHHSTCEARYEAVSPERLELERQHTFALHQRCIQAKAKRAGKHRQPPAATAPAPAAPAPRLDAADGPEHGRPATHLHDTVKRNLDSATSPQNGDQQNGYGDLFPGHKKTRREAPLGVAISSNGLPPASPLGQSDKPSGADALQSSGKHSLGLDSLNKKRLADSSLHLNGGSNPSESFPLSLNKELKQEPVEDLPCMITGTVGSISQSNLMPDLNLNEQEWKELIEELNRSVPDEDMKDLFNEDFEEKKDPESSGSATQTPLAQDINIKTEFSPAAFEQEQLGSPQVRAGSAGQTFLGPSSAPVSTDSPSLGGSQTLFHTSGQPRADNPSPNLMPASAQAQNAQRALAGVVLPSQGPGGASELSSAHQLQQIAAKQKREQMLQNPQQATPAPAPGQMSTWQQTGPSHSSLDVPYPMEKPASPSSYKQDFTNSKLLMMPSVNKSSPRPGGPYLQPSHVNLLSHQPPSNLNQNSANNQGSVLDYGNTKPLSHYKADCGQGSPGSGQSKPALMAYLPQQLSHISHEQNSLFLMKPKPGNMPFRSLVPPGQEQNPSSVPVQAQATSVGTQPPAVSVASSHNSSPYLSSQQQAAVMKQHQLLLDQQKQREQQQKHLQQQQFLQRQQHLLAEQEKQQFQRHLTRPPPQYQDPTQGSFPQQVGQFTGSSAAVPGMNTLGPSNSSCPRVFPQAGNLMPMGPGHASVSSLPTNSGQQDRGVAQFPGSQNMPQSSLYGMASGITQIVAQPPPQATNGHAHIPRQTNVGQNTSVSAAYGQNSLGSSGLSQQHNKGTLNPGLTKPPVPRVSPAMGGQNSSWQHQGMPNLSGQTPGNSNVSPFTAASSFHMQQQAHLKMSSPQFSQAVPNRPMAPMSSAAAVGSLLPPVSAQQRTSAPAPAPPPTAPQQGLPGLSPAGPELGAFSQSPASQMGGRAGLHCTQAYPVRTAGQELPFAYSGQPGGSGLSSVAGHTDLIDSLLKNRTSEEWMSDLDDLLGSQ
notes: Stably expressed in SupT1; also called FLAG-HA tagged MAML1; not shown: Flag and HA tags (pOZ vector)
binds: all assays above
